Experimental data published in publication PMC10197516.

Molecular target: SARS-CoV-2 spike-protein trimers
Experiment: SEC + other: negative-stain electron microscopy

SARS-CoV-2 spike-protein trimers was tested. Which stoichiometry N did it give?
Its stoichiometry N is 3.
